Test results published in patent US20230149532A1.
Read-outs that look alike come from different tables or passages of the source.

Columns and labels:
[1] = target: ACE-2 receptor on Vero e6 cells (African green monkey (Vero e6 cells)); experiment: two-color confocal microscopy, co-localization on Vero e6 cells (n=10 analyses)
[2] = target: ACE-2 receptor on Vero e6 cells (African green monkey (Vero e6 cells))

Substance	fold increase over the non-specific H7 control [1]	particles per field (particles per field) [1]	particles per field (particles per field) [2]
angiotensin II (from UniProt P01019 25-32) (peptide)	2.79 fold	452	
plant-produced recombinant H7 strain influenza HA protein			122
